Target: rGlu^1-hPg[S741A] (human)
Assay: SPR

Row | Substance | koff | kon | Kd
1 | rSK_(NZ131) (natural protein) | 0.0087 s⁻¹ | 1.02e+06 M⁻¹ s⁻¹ | 
2 | rSK_(NS931) (natural protein) | 0.00467 s⁻¹ | 375000 M⁻¹ s⁻¹ | 
3 | rSK_(NS223) (natural protein) | 0.00178 s⁻¹ |  | 255 nM
4 | rSK_(AP53) (natural protein) | 0.00246 s⁻¹ |  | 321 nM
5 | rSK_(NS210) (natural protein) | 0.00737 s⁻¹ | 302000 M⁻¹ s⁻¹ | 
6 | rSK_(NS88.2) (natural protein) | 0.00314 s⁻¹ | 15500 M⁻¹ s⁻¹ | 202 nM
7 | rSK_(NS53) (natural protein) | 0.00616 s⁻¹ | 1.18e+06 M⁻¹ s⁻¹ | 
8 | rSK_(NS455) (natural protein) | 0.00306 s⁻¹ | 13200 M⁻¹ s⁻¹ | 232 nM

From article PMC3516755
